In assay [1] the target is T1, SARS-CoV Nucleocapsid Protein(His Tag), 货号40143-V08B (SARS-CoV, UniProt P59595 1-422).
T1 construct: also called SARS病毒的N蛋白; SARS-CoV-NP
Kind of assay: ELISA, cross-reaction test.

Assay [2] addresses T2, MERS-CoV Nucleocapsid Protein(His Tag), 货号40068-V08B (MERS-CoV, UniProt K9N4V7 1-411).
T2 construct: also called MERS病毒的N蛋白; MERS-CoV-NP
Kind of assay: ELISA, cross-reaction test.

B1: 单克隆抗体Mouse anti-SARS-COV-2 Mab4(NP-Ab) (antibody, V domains shown)
VH: VKLQESGPELKKPGETVRISCKASGYTLTDYSIHWVKQAPGKGLKWMGWINTETVEPTYTDDFKGRFAFSLETSASTAYLQINNLKNEDTATYFCASTGTEFDYWGQGTTLTVSS
VL: DVVMTQTPLSLPVSLGDQASISCRSSQSLVHITGNTYLHWYLQKPGQSPKLLIYKVSNRFSGVPDRFSGSGSGTDFTLKISRVEAEDLGVYFCSQSTHVPLTFGAGTKLELK
notes: also called A1-1; A1-1号抗体
Consider B1, for which the binding result in assay [1] and in assay [2] was “no binding” each time.

The values are drawn from CN113912710A (SURE BIOTECH HANGZHOU LTD, dated 2022).
